# Measurements as given in patent US20090047703A1.
# Biological target: HERG-1b (human) (UniProt Q12809)
# Assay: cell-based or functional assay
substance,measurement,value
HERG-1a N-Terminal Domain fused to eCFP,"deactivation kinetics, two-electrode voltage clamp in Xenopus oocytes",10 fold
